Experimental data taken from patent US20120040894A1 (REGENTS OF THE UNIVERSITY OF CALIFONIRA, published 2012).
Numbered stars: 1 amine (or outer) side, 2 acyl side, 3 side chain; on linkers, the order of the positions; unused ones are H or OH. Square brackets hold non-standard residues; d marks the D form. Ends that are not written are not given here. Cys(S-tBut) = S-t-butylthio-L-cysteine, CC(C)(C)SSC[C@H](N[*:1])C(=O)[*:2]; Cys(tBut) = S-t-butyl-L-cysteine, CC(C)(C)SC[C@H](N[*:1])C(=O)[*:2]

T1: ferroportin tagged at the C-terminus with green fluorescent protein (ECR293/Fpn-GFP cells)
T1 sequence (Q9NP59 whole entry, species assumed, looked up): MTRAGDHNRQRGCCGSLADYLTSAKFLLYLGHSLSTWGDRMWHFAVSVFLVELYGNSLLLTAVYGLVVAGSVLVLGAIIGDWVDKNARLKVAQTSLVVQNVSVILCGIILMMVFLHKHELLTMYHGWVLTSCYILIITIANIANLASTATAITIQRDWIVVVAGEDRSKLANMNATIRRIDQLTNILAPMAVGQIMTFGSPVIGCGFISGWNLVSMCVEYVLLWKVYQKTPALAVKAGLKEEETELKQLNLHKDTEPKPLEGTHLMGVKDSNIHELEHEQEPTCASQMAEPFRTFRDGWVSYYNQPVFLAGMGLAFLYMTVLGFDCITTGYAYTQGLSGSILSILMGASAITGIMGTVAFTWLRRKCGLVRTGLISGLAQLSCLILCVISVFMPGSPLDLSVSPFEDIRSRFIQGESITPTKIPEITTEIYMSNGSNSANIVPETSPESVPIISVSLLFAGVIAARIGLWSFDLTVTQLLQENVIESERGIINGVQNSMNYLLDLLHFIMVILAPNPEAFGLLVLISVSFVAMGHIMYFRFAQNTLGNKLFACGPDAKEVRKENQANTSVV

B1: Hep9C7-SStBut (peptide)
peptide: DTHAPI[Cys(S-tBut)]IF-NH2
modifications: N-terminus assumed
SMILES: CC[C@H](C)[C@H](NC(=O)[C@H](CSSC(C)(C)C)NC(=O)[C@@H](NC(=O)[C@@H]1CCCN1C(=O)[C@H](C)NC(=O)[C@H](Cc1c[nH]cn1)NC(=O)[C@@H](NC(=O)[C@@H](N)CC(=O)O)[C@@H](C)O)[C@@H](C)CC)C(=O)N[C@@H](Cc1ccccc1)C(N)=O
B2: Pr27 (peptide)
peptide: FICIPFHTD
modifications: N-terminal R4 = Palmitoyl-(PEG11)-; retroinverted (D-amino acids); C-terminal amide
B3: Hep25 (peptide)
peptide: DTHFPICIFCCGCCHRSKCGMCCKT
modifications: disulfide (positions not given here); also: 4 disulfide bonds, pairing not given here
B4: Cyc-3 (peptide)
peptide: HFPICIF
modifications: not fully specified; C-terminal F carries R1 = -CONH2-CH2-CH2-S; disulfide cyclized (double underlining lost)
B5: Hep8 (Hep1-8) (peptide)
peptide: DTHFPICI-NH2
B6: Pr24 (peptide)
peptide: FICIPFHTD
modifications: N-terminal R3 = Ursodeoxycholate-(PEG11)-; retroinverted (D-amino acids); C-terminal amide
B7: Hep9F4A (peptide)
peptide: DTHAPICIF-NH2
B8: Pr28 (peptide)
peptide: FICIPFHTD
modifications: not fully specified; N-terminal R5 = 2(Palmitoyl)-Dap(PEG11)-, Dap = diaminopropionic acid; retroinverted (D-amino acids); C-terminal amide
B9: Hep9-C7S (peptide)
peptide: DTHFPISIF-NH2
B10: Hep9-C7A (peptide)
peptide: DTHFPIAIF-NH2
B11: Hep6 (Hep3-8) (peptide)
peptide: HFPICI-NH2
B12: riHep7ΔDT (peptide)
peptide: [dF][dI][dC][dI][dP][dF][dH]-NH2
modifications: N-terminus assumed
SMILES: CC[C@@H](C)[C@@H](NC(=O)[C@H](N)Cc1ccccc1)C(=O)N[C@H](CS)C(=O)N[C@@H](C(=O)N1CCC[C@@H]1C(=O)N[C@H](Cc1ccccc1)C(=O)N[C@H](Cc1c[nH]cn1)C(N)=O)[C@H](C)CC
B13: Hep7 (Hep1-7) (peptide)
peptide: DTHFPIC-NH2
B14: Pr23 (peptide)
peptide: FICIPFHTD
modifications: N-terminal R2 = Chenodeoxycholate-(PEG11)-; retroinverted (D-amino acids); C-terminal amide
B15: Hep4 (Hep4-7) (peptide)
peptide: FPIC-NH2
B16: Pr12 (peptide)
peptide: FICIPFHTD
modifications: retroinverted: all D-amino acids; C-terminal amide
B17: Hep5 (Hep3-7) (peptide)
peptide: HFPIC-NH2
B18: Hep7ΔDT (Hep3-9) (peptide)
peptide: HFPICIF-NH2
B19: Hep10 (Hep1-10 C7A) (peptide)
peptide: DTHFPIAIFC-NH2
B20: Hep9C7-tBut (peptide)
peptide: DTHAPI[Cys(tBut)]IF-NH2
modifications: N-terminus assumed
SMILES: CC[C@H](C)[C@H](NC(=O)[C@H](CSC(C)(C)C)NC(=O)[C@@H](NC(=O)[C@@H]1CCCN1C(=O)[C@H](C)NC(=O)[C@H](Cc1c[nH]cn1)NC(=O)[C@@H](NC(=O)[C@@H](N)CC(=O)O)[C@@H](C)O)[C@@H](C)CC)C(=O)N[C@@H](Cc1ccccc1)C(N)=O

What follows are binders tested against T1, ferroportin tagged at the C-terminus … (assay: cell-based or functional assay).

Point of comparison: B5, “EC50 (nM); loss of fluorescence of Fpn-GFP cells, flow cytometry” value 2000 nM. Against it:
- B1 — 2.9-fold lower, 700 nM
- B2 — 100-fold lower, 20 nM
- B3 — 200-fold lower, 10 nM
- B4 — higher, > 10000 nM
- B6 — 2-fold lower, 1000 nM
- B7 — higher, > 3000 nM
- B8 — 1.5-fold higher, 3000 nM
- B9 — higher, > 10000 nM
- B10 — higher, > 10000 nM
- B11 — 2-fold lower, 1000 nM
- B12 — 13-fold lower, 150 nM
- B13 — higher, > 10000 nM
- B14 — 20-fold lower, 100 nM
- B15 — higher, > 10000 nM
- B16 — 2.2-fold lower, 900 nM
- B17 — higher, > 10000 nM
- B18 — 2.9-fold lower, 700 nM
- B19 — 20-fold lower, 100 nM
- B20 — higher, > 10000 nM

Target: T1, ferroportin tagged at the C-terminus …
Assay: cell-based or functional assay
Remark: another data set of the same source

For B3, the “EC50; loss of fluorescence of Fpn-GFP cells” value was 5 to 15 nM.
